From paper PMC9388135 (Proceedings of the National Academy of Sciences of the …, 2022) come the findings set out here.

The series deals with the molecule itself. The experiment in a line: SEC.

By stoichiometry N is commonly meant a count of units in the complex or per binding partner.

B1: KicGAS L17R (natural protein, UniProt Q2HR80 1-131, looked up)
chain: MAAPRGRPKKDLTMEDRTAKISQLTVENRELRKALGSTADPRDRPLTATEKEAQLTATVGALSAAAAKKIEARVRTIFSKVVTQKQVDDALKGLSLRIDVCMSDGGTAKPPPGANNRRRRGASTTRAGVDD
In the case of B1, the “stoichiometry N” value came out at 2.

B2: KicGAS L35R (natural protein, UniProt Q2HR80 1-131, looked up)
chain: MAAPRGRPKKDLTMEDLTAKISQLTVENRELRKARGSTADPRDRPLTATEKEAQLTATVGALSAAAAKKIEARVRTIFSKVVTQKQVDDALKGLSLRIDVCMSDGGTAKPPPGANNRRRRGASTTRAGVDD
Take B2: the binding result is listed as “binds”.

B3: KicGAS L35A (natural protein, UniProt Q2HR80 1-131, looked up)
chain: MAAPRGRPKKDLTMEDLTAKISQLTVENRELRKAAGSTADPRDRPLTATEKEAQLTATVGALSAAAAKKIEARVRTIFSKVVTQKQVDDALKGLSLRIDVCMSDGGTAKPPPGANNRRRRGASTTRAGVDD
In the case of B3, the binding result is listed as “binds”.

B4: KicGAS P41S/P45I (natural protein, UniProt Q2HR80 1-131, looked up)
chain: MAAPRGRPKKDLTMEDLTAKISQLTVENRELRKALGSTADSRDRILTATEKEAQLTATVGALSAAAAKKIEARVRTIFSKVVTQKQVDDALKGLSLRIDVCMSDGGTAKPPPGANNRRRRGASTTRAGVDD
On to B4, for which the binding result is “binds”.

B5: KicGAS^9-104 (domain or fragment, UniProt Q2HR80 9-104, looked up)
chain: KKDLTMEDLTAKISQLTVENRELRKALGSTADPRDRPLTATEKEAQLTATVGALSAAAAKKIEARVRTIFSKVVTQKQVDDALKGLSLRIDVCMSD
Turning to B5, the binding result was “binds”.
